Data from EP4480965A1, “TRANSFERRIN RECEPTOR-BINDING MOLECULES, CONJUGATES THEREOF AND THEIR USES TO PREVENT OR TREAT CNS DISEASES” (Vect-Horus, priority 2023, dated 2024).

Tested on: murine SOD1 mRNA
Assay: CNS knock-down of SOD1 mRNA after single ICV administration (RT-qPCR)
Assay type: in vivo, C57Bl/6 mice
Conditions: seven days
Procedure: VHH-siSOD 1m conjugates were assessed for their potential to mediate murine SOD1 mRNA knock-down in the brain and spinal cord following intracerebroventicular (ICV) administration in wild-type C57Bl/6 mice. Wild-type C57Bl/6 mice (4 per group) were injected a single ICV dose (right lateral ventricle, 5-10 µL at 0.75 µL/min) of 100 µg (siRNA molar equivalent) of PBS vehicle (control), unconjugated siSOD1m-5'VP or the indicated VHH-siSOD1m-5'VP conjugates. Seven days after injection, tissue samples including total brain (right hemisphere), brain regions (from the left hemisphere), spinal cord and the liver were withdrawn, snap-frozen in 10 vol. ofNucleoProtect RNA stabilization reagent (Macherey-Nagel) and stored at -20°C. Frozen tissue samples were homogenized in QUIAzol lysis reagent using a Precellys Evolution tissue homogenizer equipped with a Cryolys Evolution cooling system (Bertin Instruments). Total RNA was extracted from tissue homogenates using the rNeasy 96 QIAcube HT Kit (QIAGEN) in a QIAcube HT system. RNA samples were analyzed and dosed using a Fragment Analyzer RNA kit in a Fragment Analyzer system (Agilent). Relative RNA expression levels were quantified by RT-qPCR using the TaqMan™ Fast Universal PCR Master Mix (2X) no AmpErase™ UNG kit (Applied Biosystems) and commercially available TaqMan™ probes for murine SOD1 and RpL13 genes (Applied Biosystems). Expression data were analyzed using the ΔΔCq method normalized to the expression of the reference RpL13 gene, based on raw quantification cycle (Cq) values (Bustin et al.). The results are expressed as means ± standard error of the mean (SEM) and are presented as mRNA levels relative to the control animals injected with PBS.
Biodistribution of VHH-siRNA conjugates and CNS knock-down of the target SOD1 mRNAVHH-siSODlm conjugates were evaluated using in situ hybridization methods (ISH) on brain and spinal cord samples following single ICV administration in wild-type mice. […]

B1: C5-siSOD1m-5'VP: TfR-binding VHH-siRNA conjugate wherein VHH is C5 (conjugate)
VHH: EVQLVESGGGVVQPGGSLKLSCVASGTDFSINFIRWYRQAPGKQREFVAGFTATGNTNYADSMKGRFTISRDNTKNAVYLQIDSLKPEDTAVYYCYMLDKWGQGTQVTVSSAAAEQKLISEEDLNGAAHHHHHHGS
- SOD1 mRNA knock-down (KD) in brain and spinal cord (single ICV dose 100 µg (siRNA molar equivalent)): 80-90%
- SOD1 mRNA KD in brain regions of the left hemisphere (single ICV dose 100 µg): 60-90%
- downregulation of SOD1 mRNA in all regions tested of the brain ipsilateral (right) hemisphere (single ICV dose 100 µg): 70-90%
